Experimental data taken from paper PMC4840364 (Scientific Reports, 2016).

Biological target: T1, glycoprotein Ibα (GPIbα) on human platelets (Homo sapiens, UniProt P07359)
T1 construct: human platelet glycoprotein Ibα, endogenous on platelets; On platelets GPIbα stands in the GPIb-IX complex with GPIbβ and GPIX; also called full length GPIbα expressed on the cell surface; source: endogenous, on human platelets
Experiment: flow cytometry on cells; human platelets (1.5 x 10^6 cells/well) incubated with Fab fragments at room temperature for 20 min, FITC-conjugated goat anti-mouse IgG, MFI of 10,000 cells
Conditions: one partner purified

Row | binding result | Binder
1 | binds | wild-type 5G6 Fab fragment (recombinant) (Fab, V domains shown, heavy chain of 5G6 Fab, as the heavy chain of m1; light chain of 5G6 Fab, as the light chain of m1; cDNA of both chains cloned from 5G6 hybridoma mRNA into pcDNA3.1 with a C-terminal 6xHis tag; also called 5G6-WT; source: CHO cells, transiently cotransfected, purified from medium (Ni-NTA, Superdex 200)) VH: QVTLKESGPGILQPSQTLSLTCSFSGFSLSTSNMGVVWIRQPSGKGLEWLLHILWNDGKFYNPALKSRLTISKDTYNNQVFLKIANVDTADTATYYCARLFTTTTSGYFDVWGAGTTVTVSS VL: DIQMTQSPASLSASVGETVTITCRASGNIYNYLAWYQQKQGKSPQLLVYNAKTLADGVPSRFSGSGSGTQYSLKINSLQPEDFGSYFCQHFWDTPWTFGGGTKLEIK
2 | no binding | mutant 5G6 Fab 5G6-M2 (Fab, V domains shown, as the heavy chain of m2 with Thr102-105 of CDRH3 replaced with Ala; as the light chain of m2 with Asp93 of CDRL3 replaced with Ala; five point mutations in the interface) VH: QVTLKESGPGILQPSQTLSLTCSFSGFSLSTSNMGVVWIRQPSGKGLEWLLHILWNDGKFYNPALKSRLTISKDTYNNQVFLKIANVDTADTATYYCARLFAAAASGYFDVWGAGTTVTVSS VL: DIQMTQSPASLSASVGETVTITCRASGNIYNYLAWYQQKQGKSPQLLVYNAKTLADGVPSRFSGSGSGTQYSLKINSLQPEDFGSYFCQHFWATPWTFGGGTKLEIK
